# Source: the Immune Epitope Database (IEDB)
# Assays:
# HLA-B*39:01 = experiment: IEDB peptide-MHC binding, purified MHC/competitive/fluorescence; filed as Kd, often an IC50 or EC50 that approximates it; ≥ and ≤ were set here for values at or beyond the usual limits of such assays
# HLA-A*26:01 = experiment: as above; conditions: source organism: Zaire ebolavirus
# HLA-B*15:17 = experiment: as above
# HLA-B*15:01 = experiment: as above
# HLA-B*51:01 [1] = experiment: as above; conditions: source organism: Zaire ebolavirus
# HLA-B*46:01 = experiment: as above; conditions: source organism: Zaire ebolavirus
# HLA-A*69:01 [2] = experiment: as above; conditions: source organism: Zaire ebolavirus
# HLA-B*18:01 [3] = experiment: as above; conditions: source organism: Zaire ebolavirus
# HLA-B*57:01 = experiment: as above
# HLA-B*27:03 = experiment: as above; conditions: source organism: Zaire ebolavirus
# HLA-A*02:01 [4] = experiment: as above
# HLA-A*02:11 = experiment: IEDB peptide-MHC binding, purified MHC/direct/fluorescence; filed as Kd, often an IC50 or EC50 that approximates it; ≥ and ≤ were set here for values at or beyond the usual limits of such assays; conditions: source organism: Zaire ebolavirus
# HLA-A*03:01 [5] = experiment: as above
# HLA-A*23:01 = experiment: as above; conditions: source organism: Zaire ebolavirus
# HLA-B*07:02 [6] = experiment: as above
# HLA-A*02:12 = experiment: as above
# HLA-A*29:02 = experiment: as above
# HLA-A*02:16 = experiment: as above; conditions: source organism: Zaire ebolavirus
# HLA-A*02:03 = experiment: as above; conditions: source organism: Zaire ebolavirus
# HLA-A*02:19 = experiment: as above
# HLA-A*68:02 = experiment: as above; conditions: source organism: Zaire ebolavirus
# HLA-A*24:03 = experiment: as above; conditions: source organism: Zaire ebolavirus
# HLA-A*24:02 = experiment: IEDB peptide-MHC binding, purified MHC/competitive/fluorescence; ≥ and ≤ were set here for values at or beyond the usual limits of such assays; conditions: source organism: Zaire ebolavirus
# HLA-B*07:02 [7] = experiment: as above
# HLA-B*08:01 [8] = experiment: as above
# HLA-A*02:01 [9] = experiment: as above; conditions: source organism: Zaire ebolavirus
# HLA-A*11:01 [10] = experiment: as above
# HLA-A*30:01 = experiment: IEDB peptide-MHC binding, purified MHC/competitive/fluorescence; filed as Kd, often an IC50 or EC50 that approximates it; ≥ and ≤ were set here for values at or beyond the usual limits of such assays; conditions: source organism: Vibrio cholerae V52
# HLA-A*11:01 [11] = experiment: as above; conditions: source organism: Vibrio cholerae V52
# HLA-A*02:06 = experiment: as above; conditions: source organism: Vibrio cholerae V52
# HLA-B*27:05 = experiment: IEDB peptide-MHC binding, purified MHC/direct/fluorescence; filed as Kd, often an IC50 or EC50 that approximates it; ≥ and ≤ were set here for values at or beyond the usual limits of such assays; conditions: source organism: Vibrio cholerae
# HLA-B*48:01 = experiment: as above; conditions: source organism: Vibrio cholerae
# HLA-A*01:01 = experiment: as above; conditions: source organism: Vibrio cholerae
# HLA-B*40:01 = experiment: as above; conditions: source organism: Vibrio cholerae
# HLA-B*15:09 = experiment: as above; conditions: source organism: Vibrio vulnificus CMCP6
# HLA-A*31:01 = experiment: as above; conditions: source organism: Vibrio cholerae
# HLA-B*51:01 [12] = experiment: as above; conditions: source organism: Vibrio vulnificus CMCP6
# HLA-A*69:01 [13] = experiment: as above; conditions: source organism: Vibrio cholerae
# HLA-B*08:01 [14] = experiment: as above; conditions: source organism: Vibrio vulnificus CMCP6
# HLA-B*18:01 [15] = experiment: as above; conditions: source organism: Vibrio cholerae
# HLA-B*58:01 = experiment: as above; conditions: source organism: Vibrio vulnificus CMCP6
# HLA-A*26:02 = experiment: as above; conditions: source organism: Vibrio vulnificus CMCP6
# HLA-A*03:01 [16] = experiment: IEDB peptide-MHC binding, purified MHC/competitive/fluorescence; ≥ and ≤ were set here for values at or beyond the usual limits of such assays; conditions: source organism: Variola virus
# [17] = source organism: Zaire ebolavirus
# [18] = source organism: Vibrio cholerae V52
# [19] = source organism: Vibrio vulnificus CMCP6
sequence,measurement,setting,value
APFARLLNL,Kd,HLA-B*39:01; [17],≥ 20 µM
same,Kd,HLA-A*26:01,≥ 20 µM
same,Kd,HLA-B*15:17; [17],≥ 20 µM
same,Kd,HLA-B*15:01; [17],≥ 20 µM
same,Kd,HLA-B*51:01 [1],≥ 20 µM
same,Kd,HLA-B*46:01,≥ 20 µM
same,Kd,HLA-A*69:01 [2],≥ 20 µM
same,Kd,HLA-B*18:01 [3],≥ 20 µM
same,Kd,HLA-B*57:01; [17],≥ 20 µM
same,Kd,HLA-B*27:03,≥ 20 µM
same,Kd,HLA-A*02:01 [4]; [17],≥ 20 µM
same,Kd,HLA-A*02:11,≥ 20 µM
same,Kd,HLA-A*03:01 [5]; [17],≥ 20 µM
same,Kd,HLA-A*23:01,≥ 20 µM
same,Kd,HLA-B*07:02 [6]; [17],0.0218 µM
same,Kd,HLA-A*02:12; [17],≥ 20 µM
same,Kd,HLA-A*29:02; [17],≥ 20 µM
same,Kd,HLA-A*02:16,≥ 20 µM
same,Kd,HLA-A*02:03,≥ 20 µM
same,Kd,HLA-A*02:19; [17],≥ 20 µM
same,Kd,HLA-A*68:02,≥ 20 µM
same,Kd,HLA-A*24:03,≥ 20 µM
same,IC50,HLA-A*24:02,5.54 µM
same,IC50,HLA-B*07:02 [7]; [17],0.633 µM
same,IC50,HLA-B*08:01 [8]; [17],7.08 µM
same,IC50,HLA-A*02:01 [9],≥ 161 µM
GRRTRREAI,IC50,HLA-B*07:02 [7]; [17],≥ 102 µM
same,IC50,HLA-B*08:01 [8]; [17],7.09 µM
same,IC50,HLA-A*02:01 [9],≥ 83.2 µM
same,IC50,HLA-A*11:01 [10]; [17],≥ 297 µM
TTILGLLPM,Kd,HLA-B*39:01; [18],0.618 µM
same,Kd,HLA-B*15:17; [18],0.0387 µM
same,Kd,HLA-B*15:01; [18],0.308 µM
same,Kd,HLA-A*30:01,0.677 µM
same,Kd,HLA-B*57:01; [18],3.58 µM
same,Kd,HLA-A*02:01 [4]; [18],≥ 20 µM
same,Kd,HLA-A*11:01 [11],≥ 20 µM
same,Kd,HLA-A*02:06,0.0057 µM
same,Kd,HLA-B*27:05,≥ 20 µM
same,Kd,HLA-B*48:01,≥ 20 µM
same,Kd,HLA-A*01:01,≥ 20 µM
same,Kd,HLA-B*40:01,0.189 µM
same,Kd,HLA-A*03:01 [5]; source organism: Vibrio cholerae,≥ 20 µM
same,Kd,HLA-B*15:09,7.7 µM
same,Kd,HLA-A*31:01,≥ 20 µM
same,Kd,HLA-B*07:02 [6]; [19],≥ 20 µM
same,Kd,HLA-B*51:01 [12],≥ 20 µM
same,Kd,HLA-A*02:12; [19],≥ 20 µM
same,Kd,HLA-A*29:02; [19],0.016 µM
same,Kd,HLA-A*69:01 [13],0.0016 µM
same,Kd,HLA-B*08:01 [14],≥ 20 µM
same,Kd,HLA-B*18:01 [15],0.012 µM
same,Kd,HLA-B*58:01,0.329 µM
same,Kd,HLA-A*02:19; [19],≥ 20 µM
same,Kd,HLA-A*26:02,≤ 0.001 µM
MVTLRKERL,IC50,HLA-A*24:02,4.33 µM
same,IC50,HLA-B*07:02 [7]; [17],10.4 µM
same,IC50,HLA-B*08:01 [8]; [17],13.9 µM
same,IC50,HLA-A*02:01 [9],18.8 µM
VARKHHTKI,IC50,HLA-A*03:01 [16],≥ 110 µM
same,IC50,HLA-B*07:02 [7]; source organism: Variola virus,10.5 µM
same,IC50,HLA-B*08:01 [8]; source organism: Variola virus,≥ 348 µM
same,IC50,HLA-A*11:01 [10]; source organism: Variola virus,≥ 70.5 µM
